In FireProtDB (doi:10.1006/jmbi.1995.0599):

Conditions: Homo sapiens; pH 2.7; Thermal; DSC; glycine 0.05 M; reversible: yes; whole UniProt chain shown

B1: Lysozyme C wild type, P61626 (protein)
chain: MKALIVLGLVLLSVTVQGKVFERCELARTLKRLGMDGYRGISLANWMCLAKWESGYNTRATNYNAGDRSTDYGIFQINSRYWCNDGKTPGAVNACHLSCSALLQDNIADAVACAKRVVRDPQGIRAWVAWRNRCQNRDVRQYVQGCGV
  Tm: 64.9 °C
  heat capacity change of unfolding: 1.58 kcal/mol/K
  unfolding enthalpy (calorimetric): 114 kcal/mol
  unfolding enthalpy (van 't Hoff): 120 kcal/mol
